Results from the DeepSol protein solubility set.

Assay: soluble on expression in E. coli; label from the status in PepcDB or PDB records

| Sequence | soluble on expression in E. coli |
| --- | --- |
| MVIGQKVLLARIPKMGDNYSTYLLDIEGTVCPISFVKETLFPYFTNKVPQLVQQDTRDSPVSNILSQFHIDNKEQLQAHILELVAKDVKDPILKQLQGYVWAHGYESGQIKAPVYADAIDFIKRKKRVFIYSSGSVKAQKLLFGYVQDPNAPAHDSLDLNSYIDGYFDINTSGKKTETQSYANILRDIGAKASEVLFLSDNPLELDAAAGVGIATGLASRPGNAPVPDGQKYQVYKNFETL | not soluble |
| MPNDIENGTVIPPRRGVVWKIEEKELQGFAIPFPGADLSVMVRSQYYDATVRKSRPVHLSSYFQLDTRFKTYRLILWGAITRAFALASFTRRILLKYPDQCSFRMFKKSGPSAQQIAEASFTYWFFGYGYKETIPLDQQHERKVDRKVVATCKGPDLAYMAASGCVLSAALALVKDKNNLPKEGGVYTPAAAFGDSKIYDYLATFGINFHLESEYDL | not soluble |
| MSLSYRAHGLPVLENLLEQDFSASGPNQKWAGDITYLRTDEGWLYLAVVIDLWSRAVIGWSMSPRMTAQLACDALQMALWRRRRPESVIVHTDRGGQYCSGDYQALLKRHNLRGSMSAKGYCYDNACVESFFHSLKVECIHGERFSSREIMRATVFNYIECDYNRWRRHSACGGLSPEQFENHNLAEGHHHHHH | not soluble |
| MTSVTDRSAHSAERSTEHTIDIHTTAGKLAELHKRREESLHPVGEDAVEKVHAKGKLTARERIYALLDEDSFVELDALAKHRSTNFNLGEKRPLGDGVVTGYGTIDGRDVCIFSQDATVFGGSLGEVYGEKIVKVQELAIKTGRPLIGINDGAGARIQEGVVSLGLYSRIFRNNILASGVIPQISLIMGAAAGGHVYSPALTDFVIMVDQTSQMFITGPDVIKTVTGEEVTMEELGGAHTHMAKSGTAHYAASGEQDAFDYVRELLSYLPPNNSTDAPRYQAAAPTGPIEENLTDEDLELDTLIPDSPNQPYDMHEVITRLLDDEFLEIQAGYAQNIVVGFGRIDGRPVGIVANQPTHFAGCLDINASEKAARFVRTCDCFNIPIVMLVDVPGFLPGTDQEYNGIIRRGAKLLYAYGEATVPKITVITRKAYGGAYCVMGSKDMGCDVNLAWPTAQIAVMGASGAVGFVYRQQLAEAAANGEDIDKLRLRLQQEYEDTLVNPYVAAERGYVDAVIPPSHTRGYIGTALRLLERKIAQLPPKKHGNVPL | soluble |
| MAHHHHHHMGTLEAQTQGPGSMSAPLAEVDPDIAELLAKELGRQRDTLEMIASENFVPRAVLQAQGSVLTNKYAEGLPGRRYYGGCEHVDVVENLARDRAKALFGAEFANVQPHSGAQANAAVLHALMSPGERLLGLDLANGGHLTHGMRLNFSGKLYENGFYGVDPATHLIDMDAVRATALEFRPKVIIAGWSAYPRVLDFAAFRSIADEVGAKLLVDMAHFAGLVAAGLHPSPVPHADVVSTTVHKTLGGGRSGLIVGKQQYAKAINSAVFPGQQGGPLMHVIAGKAVALKIAATPEFADRQRRTLSGARIIADRLMAPDVAKAGVSVVSGGTDVHLVLVDLRDSPLDGQAAEDLLHEVGITVNRNAVPNDPRPPMVTSGLRIGTPALATRGFGDTEFTEVADIIATALATGSSVDVSALKDRATRLARAFPLYDGLEEWSLVGR | soluble |
| MKFFLLKKFSEFLNAQTHFSLKRLNASSFLLETFSKEKHAFVVDLSAPYIGLSKKPPESVLKNTLALDFCLNKFTRNAKILQANIIDNDRILEINGAKDLAYKSENFILRLEMIPKKANLMILDKEKCVIEAFRFNDRVAKNDILGALPPNIYEHQEEDLDFKGLLDILEKDFLFYQHKELEHKKNQIIKRLNAQKERLKEKLEKLEDPKNLQLEAKELQTQASLLLTYQHLIHKHESRVVLKDFEDKERAIEIDKSMPLNAFINKKFTLSKKKKQKSQFLYLEEENLKEKIAFKENQINYVKGAQEESVLEMFMPSKNSKIKRPMSGYEVLYYKDFKIGLGKNQKENIKLLQDARANDLWMHVRNIPGSHLIVFCQKNAPKDDVIMELAKMLIKMQKDAFNSYEIDYTQRKFVKIIKGANVIYSKYRTISLKDT | not soluble |
| MDSDLYDEFGNYIGPELDSDDDAGDIDDNGDDEDRSDVDEDDEPDRMEEDDAEEIPQNQVVLHEDKKYYATALEVYGEGVETLVQEEDAQPLTEPIVKPVSKKKFQAAERFLPETVYKKEYLADLMDCPHIMRNVAIAGHLHHGKTTFLDCLMEQTHPEFYRAEDADARFTDILFIEKQRGCSIKSQPVSIVAQDSRSKSYLLNIIDTPGHVNFSDEMTASYRLADGVVVMVDAHEGVMMNTERAIRHAIQERLAVTLCISKIDRLLLELKLPPADAYFKLRLIIDQVNNILSTFAEEDVPVLSPLNGNVIFSSGRYNVCFSLLSFSNIYAKQHGDSFNSKEFARRLWGDIYFEKKTRKFVKKSPSHDAPRTFVQFILEPMYKIFSQVVGDVDTCLPDVMAELGIRLSKEEQKMNVRPLIALICKRFFGDFSAFVDLVVQNIKSPLENAKTKIEQTYLGPADSQLAQEMQKCNAEGPLMVHTTKNYPVDDATQFHVFGRVMSGTLEANTDVRVLGENYSIQDEEDCRRMTVGRLFVRVASYQIEVSRVPAGCWVLIEGIDQPIVKTATIAELGYEEDVYIFRPLKFNTRSCVKLAVEPINPSELPKMLDGLRKVNKSYPLLTTRVEESGEHVLLGTGEFYMDCVMHDMRKVFSEIDIKVADPVVTFNETVIETSTLKCFAETPNKKNKITMMAEPLEKQLDEDIENEVVQIGWNRRRLGEFFQTKYNWDLLAARSIWAFGPDTTGPNILLDDTLPSEVDKHLLSTVRESLVQGFQWATREGPLCEEPIRQVKFKLLDAAIATEPLYRGGGQMIPTARRCAYSAFLMATPRLMEPYYTVEVVAPADCVAAVYTVLAKRRGHVTTDAPMPGSPMYTISAYIPVMDSFGFETDLRIHTQGQAFCMSAFHHWQLVPGDPLDKSIVIKTLDVQPTPHLAREFMIKTRRRKGLSEDVSVNKFFDDPMLLELAKQQDYTGF | soluble |
| MGSDKIHHHHHHMDRWTQLQLFVLTADLGSLSKAAEQLDMSNAAASRTLSSLEERLGARLIERTTRRMWLTDAGREYHRRCTAVIAELAEADAIASEEVVNPRGVLRVTSSVSFAMMHLAPALPEFLKRYPNLTVQITATNQYQNFIESGIDIAIRTKEHEGDSCITIRRLAETRRVLAASPAYLATHGRPQKPEDLAQHNMLVYNLAVDPYLLHLRRGKEERNIAIASALDSNEGQVIVAAGRAGLGIVVQPLYIIHDDIVSGRLVPVLEDWQLPRLTINLAYQSRRYQPAKIRVFTDFLIERVKNLNLEERWMTFAA | not soluble |
| MISSTKLSILALALVGAVLARPQFPGGPPPGMSAVPPPIAAVLPPETLARLEAIHADSSLSELEKHKAIDTIMVNLPEEVHDRIPPPPGFAQLPAEVQAQLKTIHRDKNLDFQERQAAIHGVLENLAPEFKRLLPPPPPGFPQRRQ | soluble |
| MGSDKIHHHHHHIETYNPAEVTFPENVAKVLIVNNAVPQPEDAGYEYTLQGERQDTCKAKADSALFDACRTLGEAIVEASYFNDVLLYHDAVRKDNQAFLDTKLTQGQVASLCDETGADAVISIDRLLFDMKKSVGTLGEGYVMGMIDVQMAGVIRSYVPDREAPLATVHMKDSIYWAESADYMPILDKVLPSPENALRGAGKYFGAKVYANFVPHWEKETRWYFTGMGSRWKEASAYAANEKWDMAEDRWSGLYRGTENWKSRAKAASNLALCHEMRGALKEAYEWAHKSYDLFKRNNGDNDKSTKLLELYVQALAERIRSDKKLNVQFGED | not soluble |
| MSEPLLEVKNLKTYFPIKGGIFSRTVGHVKAVDGVSFTIKKGEVFGLVGESGSGKTTIGKTILRLVQKTEGEVKFKGHDVHSLSKEELRKHRPNMQLVFQDPFSSLNPRMRIGEALGEPMLAHGLATKENVREKVTEVLELCGLAPYHIDRYPHEFSGGQRQRIVIARAMVLNPEFIVADEPVAALDVSIQAQIINLFSELQEKKGLSYLFISHDLSVVEHLCTKIGIMYLGTIVETAPRDELFTNPLHPYTKALLSAVPIPDPTVKRERIILEGDIPSPANPPSGCCFHTRCPFATDICKQTGNSVMLVKSTLLLVIMYKREGLFQKLKESFFIY | not soluble |
| MGSDKIHHHHHHEDEKSPVMELQKASAFEPFSQSDFTFNDENAAAEFPEIKWTAADYGVKAVVNYDVTLTNDANAKTVLLGETGTTSLKFTNGQMNTMMAKVGAYPGQTYNFTITLTSKAYDMTADPASNSITFKATLFDPNAVDWKFAYVAVGYPDWDYTNAYLLGDPDGDGVYQGYANFDADGVSYAIIDGSDLTKILAKDQTAAKKGFYGIKVDAEGKVEQTEPLVWGVVGDATSGGWDKDTQMDYDATTRLWTVTTSLLDKEFKFRSNNNWDSDNYGAVSGKESELEGELVAGPNNFKVLKASPYVITMNLTNAGKYSYSMVETTIELSSAEMALPGSYQGWDATKDDCYKVQSAARDFIYTGTFYFDADTKFKFWDAGVWIGMMGPISWDEAKNIGTFVLMPSDGDNIKIETAGYYRVGADMKKLTASLTKTGWEIIGDATPGGWDKGTVMNYDPATKLWSVDVTLVAGEMKFRWDGAWTVNLGGSLGALTQDGANMKVTAGAYTIVLNPDAKTATMTKK | not soluble |
| MKKSSLNNLEYLDISQEVNALQVPNTPFLSYLLGAGKVEAAKSTEIKWREYGMNNDDSSAQLEGGEYADAESDRTWFNNYTEIFRKSTSVSGTLDAINVDGVGNELNSQVALRATEMKIDLNRKLIVGVKADESGSKGRQMNGILNLISSTNKVETAAAGAVTRKDIDALFKTMFQKGYMGEKLCLVAPDMQELMIDQLDEKSTKIVQFGDKLTFGLQLGNIVSNYGSGIALIEPNLPNGTIAAIDTNYVKLRPLREWRAEELAKTTDSRRIGLVGEYSIEYKASNSGAILNLKA | not soluble |
| MDQTNENVKESEPPSDDGPPILSVLCSLVDEIGSLRNENLRLKTRLVPAPRNTKNVVQRMSAMLEHRGSSIFPKLRRANRSSESMEIRNGARERLSTPPRKETSNSMNTSSDVSYGRNRAPPIVRPEQSDSEIDEQIFDDDDHRSRDTTRRCDSVNVPRHQNDNSTSACTSPSSASSSRDPSETMTTSRSSFLDLLGLRRRSTHIPQPTSYSKTTALKQTNKKRRRKISGNDNDSESSGMYANMEDHCSRVPSKPPRPASYYRRDDSEDSDCLRQMRQRKTASSLNVNNYEHRHEDMYRVSRETQWQHEKDNLMAEIEEMKMRNNRLVEQLREKSQQQSKLQCQLHKAEMQVNALSRRCALSEALDRLTLDERMEKSATSWIKKIEERLRIFENQMQNAKLEAATAHQMALNSSCHEKDAHQNCLEKLESLQREHMRVIHSSLVEIGVDEINMKRRLENLPTYEALYAFTHSVVRRLNEARWAVIEKTNETSRAQIDLIVSQSSHLVSLAQLERLKIMQTLRGKRQKRPSSFHGHSVSERNIRQDLSFYLPLKLHGSRVENSRRTIKKNAIVGNDRNIEEEFLKLFSYSKDFSMELAAPPERRANTRIETMMREMNGNGRPIIRRGPSGVSNSNIMRDRVTREVPSNRRPISLVETEERRIRRNEETKRSIKFMKTNSIDHGYNAYEPPPASRTTTTTIVASTQDISNNVHSPHGTPVFTRRIIIPVKGNAYDIVPEGTTANIVPANIPQMGRVRKLERAFSAESRNTVDSLHDREEQRRERRDHVEGGVERRQSKIQRSQPVSRLKQPSVQLSKFRTIENNGANREPPSSSILRPRTLEPQTSIPRITTSPPESRIPTPSSRHGNEKRGWLERLKGIGKL | not soluble |
| MSLQSADESTFDRIRRTKKLRIGAVAGGAPYYNKDLATGQWKGFYIDISKALADELECQLEITETTWGNSVLDLQANKIDIFFGLNPTPKRALVVDFSVPVFSNAFTMLTRKDFAPKTWAELNDPNVKIAVDVGSSHDQVVSRLCPKAQIVRLKTADEATMALVSGRVDAQCIILMLALTVRKKNPNVGQLLVPTPVFSTTSNAGFRRENDKTWRDYVNTWIEYNKGLGFIRSAIVTNMELVGVTEADMPAGIQEGHHHHHH | soluble |
